The test has as its target T1, human c-Met/Fc fusion protein (R&D Systems) (human, UniProt P08581 25-932).
T1 construct: Bought reagent; Coated on the ELISA plate at 2 ug/mL; also called human c-Met/Fc protein; not shown: Fc part of the bought fusion protein; not described
In words: ELISA, human c-Met/Fc coated at 2 ug/mL, hybridoma culture, anti-mouse IgG-HRP. On the procedure:
Human c-Met/Fc fusion protein was seeded in an amount of 50 μL (2 μg/mL)/well to microtiter plates and allowed to adhere to the surface of each well. The antibody that remained unbound was removed by washing.
The hybridoma cell culture obtained in Reference Example 1.1.2 was added in an amount of 50 μL to each well of the plates and incubated for 1 hour. The cells remaining unreacted were washed out with a sufficient amount of Tris-buffered saline and Tween 20 (TBST). Goat anti-mouse IgG-horseradish peroxidase (HRP) was added to the plates and incubated for 1 hour at room temperature. The plates were washed with a sufficient amount of TBST, followed by reacting the peroxidase with a substrate (OPD). Absorbance at 450 nm was measured on an ELISA reader.
(In general: In an ELISA, binding on a coated surface is turned into a signal by an enzyme label.)

T1 sequence (P08581 25-932 limits assumed): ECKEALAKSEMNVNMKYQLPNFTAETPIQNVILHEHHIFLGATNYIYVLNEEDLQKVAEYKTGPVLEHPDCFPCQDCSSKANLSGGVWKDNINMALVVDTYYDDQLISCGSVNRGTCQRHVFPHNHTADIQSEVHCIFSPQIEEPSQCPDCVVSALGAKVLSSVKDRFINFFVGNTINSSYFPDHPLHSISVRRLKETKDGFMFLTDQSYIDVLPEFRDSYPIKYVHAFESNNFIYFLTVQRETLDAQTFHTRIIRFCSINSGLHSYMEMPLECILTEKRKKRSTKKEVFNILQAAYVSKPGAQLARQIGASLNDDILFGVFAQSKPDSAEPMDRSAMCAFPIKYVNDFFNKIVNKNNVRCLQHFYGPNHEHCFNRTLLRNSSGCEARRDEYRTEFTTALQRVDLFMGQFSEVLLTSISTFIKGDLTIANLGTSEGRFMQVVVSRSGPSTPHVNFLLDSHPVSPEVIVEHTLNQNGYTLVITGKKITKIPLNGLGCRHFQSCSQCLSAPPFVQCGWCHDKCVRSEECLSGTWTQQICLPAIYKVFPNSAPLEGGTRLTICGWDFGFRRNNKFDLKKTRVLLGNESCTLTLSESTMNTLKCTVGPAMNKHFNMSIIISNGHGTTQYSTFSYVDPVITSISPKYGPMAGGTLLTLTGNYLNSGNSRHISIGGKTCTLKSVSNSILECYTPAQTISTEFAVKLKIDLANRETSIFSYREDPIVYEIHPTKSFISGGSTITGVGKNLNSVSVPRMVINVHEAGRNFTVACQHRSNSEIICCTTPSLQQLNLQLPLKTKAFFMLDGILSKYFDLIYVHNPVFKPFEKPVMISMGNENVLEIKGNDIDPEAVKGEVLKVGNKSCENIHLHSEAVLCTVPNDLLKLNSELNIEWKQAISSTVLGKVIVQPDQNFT

B1: AbF46, mouse monoclonal antibody to c-Met (antibody, V domains shown)
VH: EVKLVESGGGLVQPGGSLRLSCATSGFTFTDYYMSWVRQPPGKALEWLGFIRNKANGYTTEYSASVKGRFTISRDNSQSILYLQMDTLRAEDSATYYCARDNWFAYWGQGTLVTVSA
VL: DILMTQSPSSLTVSAGEKVTMSCKSSQSLLASGNQNNYLAWHQQKPGRSPKMLIIWASTRVSGVPDRFIGSGSGTDFTLTINSVQAEDLAVYYCQQSYSAPLTFGAGTKLELK
notes: Tested as hybridoma culture supernatant in the selection ELISA; also called monoclonal antibody produced by hybridoma KCLRF-BP-00220
With B1, the binding result is given as “binds”.

Values taken from US20140294830A1 (SAMSUNG LIFE WELFARE FOUNDATION, published 2014).
